Consider one molecule from article PMC7948503, “Optimization of a peptide ligand for the adhesion GPCR ADGRG2 provides a potent tool to explore receptor biology” (The Journal of Biological Chemistry, 2020).

Common to all, as to experiment: FRET or BRET; HEK293 cells transfected with Rluc-ADGRG2-ΔGPS-β WT or mutants, stimulated by increasing concentrations of FITC-conjugated VPM-p15; saturation curves fitted with GraphPad; each experiment repeated 6 times
What all share (conditions): one partner purified
(In BRET a luciferase serves as donor, and the signal depends on an acceptor being close.)

In one assay the target is T1, Rluc-ADGRG2-ΔGPS-β Y765A (mouse, UniProt Q8CJ12-3 38-995, Y765A).
T1 construct: ADGRG2 (GPR64), mouse, ADGRG2-ΔGPS-β: the entire ECD removed; source: HEK293, transfected, on cells; not shown: Rluc, N-terminal, kept
T1 sequence (Q8CJ12 other isoform, or with tags, fused parts or gaps Y765A | Y765A | Y765A Y765A): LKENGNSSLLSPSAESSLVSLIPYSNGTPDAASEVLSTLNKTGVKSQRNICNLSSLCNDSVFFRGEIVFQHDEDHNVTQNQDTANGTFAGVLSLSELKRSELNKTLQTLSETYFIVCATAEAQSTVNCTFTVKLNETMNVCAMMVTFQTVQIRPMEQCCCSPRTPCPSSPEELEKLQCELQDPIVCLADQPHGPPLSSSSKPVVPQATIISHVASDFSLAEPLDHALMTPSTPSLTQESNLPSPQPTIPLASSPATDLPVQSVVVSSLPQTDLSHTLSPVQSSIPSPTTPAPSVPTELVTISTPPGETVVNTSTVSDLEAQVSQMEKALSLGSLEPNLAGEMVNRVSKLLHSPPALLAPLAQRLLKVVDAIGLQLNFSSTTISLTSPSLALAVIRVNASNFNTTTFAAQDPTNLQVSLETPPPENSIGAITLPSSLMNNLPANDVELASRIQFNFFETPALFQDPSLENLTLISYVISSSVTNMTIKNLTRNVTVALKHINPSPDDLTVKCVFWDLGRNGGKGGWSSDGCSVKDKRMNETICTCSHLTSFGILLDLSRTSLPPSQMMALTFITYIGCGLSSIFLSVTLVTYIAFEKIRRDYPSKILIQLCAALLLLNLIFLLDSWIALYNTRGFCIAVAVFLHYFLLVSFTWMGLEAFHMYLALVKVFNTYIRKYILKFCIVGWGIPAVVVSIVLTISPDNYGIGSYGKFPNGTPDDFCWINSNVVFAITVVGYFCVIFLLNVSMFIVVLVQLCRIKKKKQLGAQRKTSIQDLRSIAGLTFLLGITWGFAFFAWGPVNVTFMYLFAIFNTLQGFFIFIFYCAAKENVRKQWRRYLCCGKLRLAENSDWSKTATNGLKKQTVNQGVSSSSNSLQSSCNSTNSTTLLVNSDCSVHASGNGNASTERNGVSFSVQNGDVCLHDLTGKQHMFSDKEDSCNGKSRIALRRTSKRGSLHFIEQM

The target of a further assay is T2, Rluc-ADGRG2-ΔGPS-β S661A (mouse, UniProt Q8CJ12-3 38-995, S661A).
T2 construct: ADGRG2 (GPR64), mouse, ADGRG2-ΔGPS-β: the entire ECD removed; source: HEK293, transfected, on cells; not shown: Rluc, N-terminal, kept
T2 sequence (Q8CJ12 other isoform, or with tags, fused parts or gaps S661A | S661A | S661A S661A): as the sequence (Q8CJ12 other isoform, or with tags, fused parts or gaps Y765A | Y765A | Y765A Y765A) above, with S624A, A728Y counted along it

Another assay concerns the target T3, Rluc-ADGRG2-ΔGPS-β I741A (mouse, UniProt Q8CJ12-3 38-995, I741A).
T3 construct: ADGRG2 (GPR64), mouse, ADGRG2-ΔGPS-β: the entire ECD removed; also called F741A (as the methods list it); source: HEK293, transfected, on cells; not shown: Rluc, N-terminal, kept

The next assay has as its target T4, Rluc-ADGRG2-ΔGPS-β F845A (mouse, UniProt Q8CJ12-3 38-995, F845A).
T4 construct: ADGRG2 (GPR64), mouse, ADGRG2-ΔGPS-β: the entire ECD removed; source: HEK293, transfected, on cells; not shown: Rluc, N-terminal, kept

A further assay concerns the target T5, Rluc-ADGRG2-ΔGPS-β F829A (mouse, UniProt Q8CJ12-3 38-995, F829A).
T5 construct: ADGRG2 (GPR64), mouse, ADGRG2-ΔGPS-β: the entire ECD removed; source: HEK293, transfected, on cells; not shown: Rluc, N-terminal, kept

A further assay deals with T6, Rluc-ADGRG2-ΔGPS-β I663A (mouse, UniProt Q8CJ12-3 38-995, I663A).
T6 construct: ADGRG2 (GPR64), mouse, ADGRG2-ΔGPS-β: the entire ECD removed; source: HEK293, transfected, on cells; not shown: Rluc, N-terminal, kept
T6 sequence (Q8CJ12 other isoform, or with tags, fused parts or gaps I663A | I663A | I663A I663A): as the sequence (Q8CJ12 other isoform, or with tags, fused parts or gaps Y765A | Y765A | Y765A Y765A) above, with I626A, A728Y counted along it

The next assay has as its target T7, Rluc-ADGRG2-ΔGPS-β L679A (mouse, UniProt Q8CJ12-3 38-995, L679A).
T7 construct: ADGRG2 (GPR64), mouse, ADGRG2-ΔGPS-β: the entire ECD removed; source: HEK293, transfected, on cells; not shown: Rluc, N-terminal, kept

For a further assay, the target named is T8, Rluc-ADGRG2-ΔGPS-β F828A (mouse, UniProt Q8CJ12-3 38-995, F828A).
T8 construct: ADGRG2 (GPR64), mouse, ADGRG2-ΔGPS-β: the entire ECD removed; source: HEK293, transfected, on cells; not shown: Rluc, N-terminal, kept
T8 sequence (Q8CJ12 other isoform, or with tags, fused parts or gaps F828A | F828A | F828A F828A): as the sequence (Q8CJ12 other isoform, or with tags, fused parts or gaps Y765A | Y765A | Y765A Y765A) above, with A728Y, F791A counted along it

A further assay deals with T9, Rluc-ADGRG2-ΔGPS-β F826A (mouse, UniProt Q8CJ12-3 38-995, F826A).
T9 construct: ADGRG2 (GPR64), mouse, ADGRG2-ΔGPS-β: the entire ECD removed; source: HEK293, transfected, on cells; not shown: Rluc, N-terminal, kept
T9 sequence (Q8CJ12 other isoform, or with tags, fused parts or gaps F826A | F826A | F826A F826A): as the sequence (Q8CJ12 other isoform, or with tags, fused parts or gaps Y765A | Y765A | Y765A Y765A) above, with A728Y, F789A counted along it

The target of another assay is T10, Rluc-ADGRG2-ΔGPS-β I730A (mouse, UniProt Q8CJ12-3 38-995, I730A).
T10 construct: ADGRG2 (GPR64), mouse, ADGRG2-ΔGPS-β: the entire ECD removed; source: HEK293, transfected, on cells; not shown: Rluc, N-terminal, kept
T10 sequence (Q8CJ12 other isoform, or with tags, fused parts or gaps I730A | I730A | I730A I730A): as the sequence (Q8CJ12 other isoform, or with tags, fused parts or gaps Y765A | Y765A | Y765A Y765A) above, with I693A, A728Y counted along it

A further assay has as its target T11, Rluc-ADGRG2-ΔGPS-β F772A (mouse, UniProt Q8CJ12-3 38-995, F772A).
T11 construct: ADGRG2 (GPR64), mouse, ADGRG2-ΔGPS-β: the entire ECD removed; source: HEK293, transfected, on cells; not shown: Rluc, N-terminal, kept

Another assay has as its target T12, Rluc-ADGRG2-ΔGPS-β L665A (mouse, UniProt Q8CJ12-3 38-995, L665A).
T12 construct: ADGRG2 (GPR64), mouse, ADGRG2-ΔGPS-β: the entire ECD removed; source: HEK293, transfected, on cells; not shown: Rluc, N-terminal, kept

The next assay has as its target T13, Rluc-ADGRG2-ΔGPS-β M839A (mouse, UniProt Q8CJ12-3 38-995, M839A).
T13 construct: ADGRG2 (GPR64), mouse, ADGRG2-ΔGPS-β: the entire ECD removed; source: HEK293, transfected, on cells; not shown: Rluc, N-terminal, kept

Another assay addresses T14, Rluc-ADGRG2-ΔGPS-β F764A (mouse, UniProt Q8CJ12-3 38-995, F764A).
T14 construct: ADGRG2 (GPR64), mouse, ADGRG2-ΔGPS-β: the entire ECD removed; source: HEK293, transfected, on cells; not shown: Rluc, N-terminal, kept

A further assay concerns the target T15, Rluc-ADGRG2-ΔGPS-β V834A (mouse, UniProt Q8CJ12-3 38-995, V834A).
T15 construct: ADGRG2 (GPR64), mouse, ADGRG2-ΔGPS-β: the entire ECD removed; source: HEK293, transfected, on cells; not shown: Rluc, N-terminal, kept

A further assay concerns the target T16, Rluc-ADGRG2-ΔGPS-β F747A (mouse, UniProt Q8CJ12-3 38-995, F747A).
T16 construct: ADGRG2 (GPR64), mouse, ADGRG2-ΔGPS-β: the entire ECD removed; source: HEK293, transfected, on cells; not shown: Rluc, N-terminal, kept

Non-standard residues stand in square brackets, D forms with d. Primed or numbered codes have the meaning given here. No end group written: not given here. Phe(4-Me) = Cc1ccc(C[C@H](N)C(=O)O)cc1; FITC′ = not defined here

T13 sequence (Q8CJ12 other isoform, or with tags, fused parts or gaps M839A | M839A | M839A M839A): as the sequence (Q8CJ12 other isoform, or with tags, fused parts or gaps Y765A | Y765A | Y765A Y765A) above, with A728Y, M802A counted along it
T3 sequence (Q8CJ12 other isoform, or with tags, fused parts or gaps I741A | I741A | I741A I741A): as the sequence (Q8CJ12 other isoform, or with tags, fused parts or gaps Y765A | Y765A | Y765A Y765A) above, with I704A, A728Y counted along it
T12 sequence (Q8CJ12 other isoform, or with tags, fused parts or gaps L665A | L665A | L665A L665A): as the sequence (Q8CJ12 other isoform, or with tags, fused parts or gaps Y765A | Y765A | Y765A Y765A) above, with L628A, A728Y counted along it
T14 sequence (Q8CJ12 other isoform, or with tags, fused parts or gaps F764A | F764A | F764A F764A): as the sequence (Q8CJ12 other isoform, or with tags, fused parts or gaps Y765A | Y765A | Y765A Y765A) above, with F727A, A728Y counted along it
T11 sequence (Q8CJ12 other isoform, or with tags, fused parts or gaps F772A | F772A | F772A F772A): as the sequence (Q8CJ12 other isoform, or with tags, fused parts or gaps Y765A | Y765A | Y765A Y765A) above, with A728Y, F735A counted along it
T16 sequence (Q8CJ12 other isoform, or with tags, fused parts or gaps F747A | F747A | F747A F747A): as the sequence (Q8CJ12 other isoform, or with tags, fused parts or gaps Y765A | Y765A | Y765A Y765A) above, with F710A, A728Y counted along it
T5 sequence (Q8CJ12 other isoform, or with tags, fused parts or gaps F829A | F829A | F829A F829A): as the sequence (Q8CJ12 other isoform, or with tags, fused parts or gaps Y765A | Y765A | Y765A Y765A) above, with A728Y, F792A counted along it
T7 sequence (Q8CJ12 other isoform, or with tags, fused parts or gaps L679A | L679A | L679A L679A): as the sequence (Q8CJ12 other isoform, or with tags, fused parts or gaps Y765A | Y765A | Y765A Y765A) above, with L642A, A728Y counted along it
T4 sequence (Q8CJ12 other isoform, or with tags, fused parts or gaps F845A | F845A | F845A F845A): as the sequence (Q8CJ12 other isoform, or with tags, fused parts or gaps Y765A | Y765A | Y765A Y765A) above, with A728Y, F808A counted along it
T15 sequence (Q8CJ12 other isoform, or with tags, fused parts or gaps V834A | V834A | V834A V834A): as the sequence (Q8CJ12 other isoform, or with tags, fused parts or gaps Y765A | Y765A | Y765A Y765A) above, with A728Y, V797A counted along it

B1: FITC-conjugated VPM-p15 (ADGRG2 Stachel peptide p15 T1V/F3Phe(4-Me)) (peptide)
chain: VS[Phe(4-Me)]GILLDLSRTSLP-{FITC′}
As usually defined, the EC50 is the midpoint of the concentration-response curve. Turning to B1, the EC50 with Rluc-ADGRG2-ΔGPS-β Y765A was 0.905 µM; with Rluc-ADGRG2-ΔGPS-β S661A it was 0.778 µM; with Rluc-ADGRG2-ΔGPS-β I741A, 0.669 µM; in the assay with Rluc-ADGRG2-ΔGPS-β F845A it was 1.36 µM; with Rluc-ADGRG2-ΔGPS-β F829A, 0.323 µM; with Rluc-ADGRG2-ΔGPS-β I663A, 0.772 µM. Also, the EC50 with Rluc-ADGRG2-ΔGPS-β L679A is 1.16 µM; with Rluc-ADGRG2-ΔGPS-β F828A, 1.17 µM; with Rluc-ADGRG2-ΔGPS-β F826A, 1.17 µM; with Rluc-ADGRG2-ΔGPS-β I730A, 1.2 µM; in the assay with Rluc-ADGRG2-ΔGPS-β F772A it was 0.843 µM; with Rluc-ADGRG2-ΔGPS-β L665A it was 0.795 µM. Also, the EC50 in the assay with Rluc-ADGRG2-ΔGPS-β M839A is 0.896 µM; with Rluc-ADGRG2-ΔGPS-β F764A, 1.11 µM; with Rluc-ADGRG2-ΔGPS-β V834A it was 1.12 µM; with Rluc-ADGRG2-ΔGPS-β F747A, 0.759 µM.
